Consider three substances from paper doi:10.1101/655696.

The target in test [1] is mature 30S ribosomal subunit (MRE600) (E. coli (endogenous in MRE600)) (UniProt P0AG67). Description: ultrafiltration assay.
The target in test [2] is pre-30S particles from the ΔrbfA strain (BX41) (E. coli (endogenous in BX41)). Kind of test: ultrafiltration assay.
The target of test [3] is mature 30S ribosomal subunit (MRE600) (E. coli (endogenous in MRE600)) (UniProt P0AG67). Kind of test: co-sedimentation + other: ultrafiltration assay.
The target is the same in test [4]. Description: co-sedimentation.

On to “Cy3-IF3 (from UniProt P0A707 1-180) (natural protein)”, for which the average fold change in bound IF3 over background in test [1] amounted to 2.2 fold; in test [2], 1.9 fold.

For the substance “Cy5-RbfA (ribosome binding factor A labelled with Cy5 at position 2) (from UniProt P0A7G2 1-133) (natural protein)”, the t1/2 of the complex in test [3] was more than 30 min. This substance returned a half-life of the complex in test [2] of more than 60 min.

In test [4], “Initiation factor 3 (IF3), wild type (from UniProt P0A707 1-180) (natural protein)” gave a decrease of Cy5-RbfA fluorescence in the pelleted fraction with 4 µM IF3 of more than 80%.
